Results published in PMC6406451.

Biological target: human TRPM8 fused C-terminally to TEV-GFP-His8-tag (human), Q7Z2W7
Experiment: SDS-PAGE with in-gel GFP fluorescence; crude S. cerevisiae membranes separated by SDS-PAGE, GFP fluorescence of the fusion read in the gel
Settings: remark: other sources report otherwise

- stoichiometry N: 2
B1: human TRPM8 fused C-terminally to TEV-GFP-His8-tag, Q7Z2W7 1-1104 (natural protein)
chain: MSFRAARLSMRNRRNDTLDSTRTLYSSASRSTDLSYSESDLVNFIQANFKKRECVFFTKDSKATENVCKCGYAQSQHMEGTQINQSEKWNYKKHTKEFPTDAFGDIQFETLGKKGKYIRLSCDTDAEILYELLTQHWHLKTPNLVISVTGGAKNFALKPRMRKIFSRLIYIAQSKGAWILTGGTHYGLMKYIGEVVRDNTISRSSEENIVAIGIAAWGMVSNRDTLIRNCDAEGYFLAQYLMDDFTRDPLYILDNNHTHLLLVDNGCHGHPTVEAKLRNQLEKYISERTIQDSNYGGKIPIVCFAQGGGKETLKAINTSIKNKIPCVVVEGSGQIADVIASLVEVEDALTSSAVKEKLVRFLPRTVSRLPEEETESWIKWLKEILECSHLLTVIKMEEAGDEIVSNAISYALYKAFSTSEQDKDNWNGQLKLLLEWNQLDLANDEIFTNDRRWESADLQEVMFTALIKDRPKFVRLFLENGLNLRKFLTHDVLTELFSNHFSTLVYRNLQIAKNSYNDALLTFVWKLVANFRRGFRKEDRNGRDEMDIELHDVSPITRHPLQALFIWAILQNKKELSKVIWEQTRGCTLAALGASKLLKTLAKVKNDINAAGESEELANEYETRAVELFTECYSSDEDLAEQLLVYSCEAWGGSNCLELAVEATDQHFIAQPGVQNFLSKQWYGEISRDTKNWKIILCLFIIPLVGCGFVSFRKKPVDKHKKLLWYYVAFFTSPFVVFSWNVVFYIAFLLLFAYVLLMDFHSVPHPPELVLYSLVFVLFCDEVRQWYVNGVNYFTDLWNVMDTLGLFYFIAGIVFRLHSSNKSSLYSGRVIFCLDYIIFTLRLIHIFTVSRNLGPKIIMLQRMLIDVFFFLFLFAVWMVAFGVARQGILRQNEQRWRWIFRSVIYEPYLAMFGQVPSDVDGTTYDFAHCTFTGNESKPLCVELDEHNLPRFPEWITIPLVCIYMLSTNILLVNLLVAMFGYTVGTVQENNDQVWKFQRYFLVQEYCSRLNIPFPFIVFAYFYMVVKKCFKCCCKEKNMESSVCCFKNEDNETLAWEGVMKENYLVKINTKANDTSEEMRHRFRQLDTKLNDLKGLLKEIANKIK
